# Experimental data taken from patent US12371726B2, “Process to produce mono-rhamnolipids” (Conopco, Inc., priority 2021, dated 2025).
# B1: enzyme from A. terreus: recombinant α-L-rhamnosidase from Aspergillus terreus, prepared internally, secreted in P. pastoris; SEQ ID. 1 (protein, listed as Aspergillus terreus)
# chain: MALSISQVAFEHHRTALGIGETQPRVSWRFDGNVSDWEQRAYEIEVKRAGHDADVFRSESSDSVLVPWPSSPLQSGEEATVRVRSFGSDGQHDTPWSDAVTVEPGLLTPDDWHDAVVIASDRPTEVDATHRPIQFRKEFSVDDSYVSARLYITALGLYEARINDQRVGDHVMAPGWQSYQYRHEYNTYDVTDLLKQGPNAIGVTVGEGWYSGRIGYDGGKRNIYGDTLGLLSLLVVTKSDGSKLYIPSDSSWKSSTGPIISSEIYDGEEYDSRLEQKGWSQVGFNSTGWLGTHELSFPKERLASPDGPPVRRVAEHKLANVFSSASGKTVLDFGQNLVGWLRIRVKGPKGQTIRFVHTEVMENGEVATRPLRQAKATDHFTLSGEGVQEWEPSFTYHGFRYVQVDGWPADTPLDENSVTAIVVHSDMERTGYFECSNPLISKLHENILWSMRGNFFSIPTDCPQRDERLGWTGDIHAFSRTANFIYDTAGFLRAWLKDARSEQLNHSYSLPYVIPNIHGNGETPTSIWGDAIVGVPWQLYESFGDKVMLEEQYGGAKDWVDKGIVRNDVGLWDRSTFQWADWLDPKAPADDPGDATTNKYLVSDAYLLHSTDMLANISTSLSKGEEASNYTEWHAKLTKEFQKAWITSNGTMANETQTGLALPLYFDLFPSAEQAQSAAKRLVNIIKQNDYKVGTGFAGTHLLGHTLSKYGESDAFYSMLRQTEVPSWLYQVVMNGTTTWERWDSMLPNGSINPGQMTSFNHYAVGSVGSWLHEVIGGLSPAEPGWRRINIEVVPGGDLQQASTKFLTPYGMASTKWWLDGQDQSCGGFDFHLVAEVPPNTRATVVLPGKGGEKVDVGSGVHEYHVRCVKL
# B2: enzyme from A. niger: α-L-rhamnosidase from Aspergillus niger obtained from Megazyme LTD; SEQ ID. 2 (protein)
# chain: MAPIALKILLFTSLIVPSISLSDQARNGHARTICEVKPGGSSEIDDVPAIVDALTTCGSGGRVIFSNNTYHINSVMNTTWLDDVEIDLQGTLLWSTNISYWLNHSLPVGYQNQSTAWILGGKDIVFEGHGYGTFNGSGQTWYRYVGSTSNYPRRPNQLTVSGAMGAVFKGLRFVQSQMWTMSIIHTSNSWFDSIYVNNLYDDGGSAQNTDGANTIYSKNITLTNWEVVNGDDSISTKANSTDITIANCTFTSGLGIAIGSIGQYNGAFETVERLKISNITYEKTTHAVYFKTWTGDQVGYPPNGGGGGLGYASDIVATNLKTNNLKGAPFTISQCTTFSGASGNCTNSKFQIRDLVFTDISGTTDSSDVASFQCSAVAPCEDITIENVSLRIAGNTTHAEEYLCGNVDGTVGFNCTGDVCVGSSATGGC
# modifications: Aspergillus niger
# Key:
# [1] = test system: α-L-rhamnosidase from A. terreus; experiment: Influence of rhamnose excess on rhamnosidase activity (product inhibition); type: biochemical, Aspergillus terreus; conditions: pNPR substrate, rhamnose solutions 0.6-3 mM added 1:1:1, pH 6.5, 40° C., 30 minutes
# Method: The analysis was performed only for α-l-rhamnosidase from A. terreus. The influence of rhamnose excess on enzyme activity was investigated using the same colorimetric method as described above (See FIG. 1). The pNPR substrate was first dissolved in DMSO, with concentration adjusted to 300 μM in 100 mM sodium phosphate buffer pH 6.5. Enzymes were diluted to concentration of 30 μg/mL in 100 mM sodium phosphate buffer pH 6.5. Following sequence of rhamnose concentrations were prepared in 100 mM sodium phosphate buffer pH 6.5: 0.6 mM, 1.2 mM, 1.8 mM, 2.4 mM, 3 mM. 240 μL of the total reaction mixture was prepared by adding the substrate solution, the enzyme solution and the rhamnose solution in 1:1:1 ratio. The activity assay was performed on 96-well Microtiter UV plate by Thermo Scientific (Waltham, MA USA). All reactions were done at pH 6.5 and in temperature 40° C. The changes in absorbance were monitored at 405 nm for 30 minutes in Microplate reader Varioskan® Flash. The relative activity of α-L-rhamnosidase from A. terreus was measured using pNPR substrate in the excess of rhamnose in the reaction mix. The analysis was performed in order to study product inhibition phenomenon.
# [2] = β-D-glucosidase activity assessment, colorimetric method using pNPG; type: biochemical
# Method: β-D-glucosidase activity of enzyme from A. terreus was determined by a colorimetric method using p-nitrophenyl-β-glucopyranoside (pNPG). The pNPG substrate was first dissolved in DMSO, with concentration adjusted to 200 μM in 100 mM sodium phosphate buffer pH 6.5. To analyse the substrate preference, the pNPG was mixed with pNPR at 1:1 ratio, then dissolved in DMSO, and concentration of such mixture was adjusted to 200 μM in 100 mM sodium phosphate buffer pH 6.5. As a control, pNPR, prepared as above, at concentration of 200 μM was used. Enzyme was diluted to concentration of 20 μg/mL in 100 mM sodium phosphate buffer pH 6.5. The reactions were prepared by mixing the substrate solution with enzyme solution in 1:1 ratio. The activity assay was performed on 96-well Microtiter UV plate by Thermo Scientific (Waltham, MA USA). […] The changes in relative absorbance values were monitored at 405 nm for about 30 minutes in Microplate reader Varioskan® Flash.
# pNPG was used as a substrate to monitor β-D-glucosidase activity of enzyme from A. terreus, the pNPR was used as a substrate showing α-l-rhamnopyranoside activity, and mixture of both substrates was used to determine substrate preference (see FIG. 5). […] The absorbance signal was not detected for the reaction with pNPG, and the reaction kinetics observed for pNPR substrate was not impacted by presence of pNPG in the reaction with mixed substrates.
# [3] = Rhamnosidase activity assessment, colorimetric method using pNPR; type: biochemical; conditions: 40° C.
# Method: α-l-Rhamnosidase activity of enzyme from A. terreus and enzyme from A. niger was determined by a colorimetric method using p-nitrophenyl-α-l-rhamnopyranoside (pNPR) (See the chemical formula equation shown in FIG. 1). The pNPR substrate was first dissolved in DMSO, with concentration adjusted to 200 μM in 100 mM sodium phosphate buffer pH 6.5. Enzymes were diluted to concentration of 20 μg/mL in 100 mM sodium phosphate buffer pH 6.5. The reaction was prepared by mixing the substrate solution with enzyme solution in 1:1 ratio. The activity assay was performed on 96-well Microtiter UV plate by Thermo Scientific (Waltham, MA USA). All reactions were done at pH 6.5 and in temperature 40° C. The changes in absorbance were monitored at 405 nm for 60 minutes in Microplate reader Varioskan® Flash. The relative activity of α-L-rhamnosidase from A. terreus and α-L-rhamnosidase from A. niger were measured against the p-NPR. The reaction was monitored in time at 40° C. and pH 6.5 (See FIG. 3). The enzymes caused release of the product—4-nitrophenol. […] The 70% conversion of R2 is plenty sufficient for test purposes, therefore the enzyme with faster kinetics was used for further analysis.
Molecule,effect of added rhamnose on substrate conversion rate [1],"substrate preference, pNPR versus pNPG and mixed substrates ([2]; pNPG mixed with pNPR 1:1, pH 6.5, 40° C.)","absorbance signal at 405 nm with pNPG (β-D-glucosidase activity) ([2]; pNPG, pH 6.5, 40° C., about 30 minutes)","converted substrate at plateau ([3]; pNPR 100 μM, pH 6.5)","time to reach about 70% of converted substrate ([3]; pNPR 100 μM, pH 6.5)","kinetic behaviour compared between the two enzymes ([3]; pNPR, pH 6.5)","substrate converted more than A. terreus enzyme after 60 min ([3]; pNPR 100 μM, pH 6.5, 60 min)"
C[C@H](O)[C@H](O)[C@@H](O)[C@@H](O)C=O [rhamnose],substrate conversion rate decreased,,,,,,
B1,,recognized only pNPR as a substrate,not detected,70%,10 min,acting faster,
B2,,,,,30 min,,10%
